Primed or numbered codes have the meaning given here. No end group written: not given here. *: point of attachment. Hexanoyl(6-maleimido) = O=C1C=CC(=O)N1CCCCCC(=O)*; PABC′ = p-aminobenzylcarbamate
Legend:
[1] = molecular target: T1, human serum albumin (HSA) (human, UniProt P02768 25-609); experiment: analytical HPLC; 100 µM conjugate with 700 µM purchased HSA in PBS, room temperature; covalent binding
T1 construct: also called commercially available human serum albumin; human serum albumin in human plasma
Procedure: A human serum albumin (HSA) solution was prepared in PBS at final concentration of 700 μM. […] The samples were subjected to analytical HPLC (see FIG. 21).

[2] = molecular target: HSA-maleimide-KGDEVD-PABC-doxorubicin (SEQ ID NO: 28)

binding result [1] | Binder | HPLC monitored cleavage; liberation of free doxorubicin [2]
binds | K(Hexanoyl(6-maleimido))GDEVD-{PABC′-doxorubicin} (not fully specified (N-terminus), Peptide-drug prodrug conjugate) [maleimide-KGDEVD-PABC-doxorubicin (SEQ ID NO: 10)] | –
– | recombinant human caspase-3 (protein) SGISLDNSYKMDYPEMGLCIIINNKNFHKSTGMTSRSGTDVDAANLRETFRNLKYEVRNKNDLTREEIVELMRDVSKEDHSKRSSFVCVLLSHGEEGIIFGTNGPVDLKKITNFFRGDRCRSLTGKPKLFIIQACRGTELDCGIETDSGVDDDMACHKIPVEADFLYAYSTAPGYYSWRNSKDGSWFIQSLCAMLKQYADKLEFMHILTRVNRKVATEFESFSFDATFHAKKQIPCIVSMLTKELYFYH | The free doxorubicin was completely liberated from the HSA-maleimide-KGDEVD-PABC-doxorubicin (SEQ ID NO: 28) conjugate within 1 hour
